PMC11969024 (2025)

B1: peptide HD2 (from tick evasin EVA4) / CCL19 (biotinylated, synthetic) (parent complex)
chain 1: EEDDYTAYAPLTCYFT
chain 2: GTNDAEDCCLSVTQKPIPGYIVRNFHYLLIKDGCRVPAVVFTTLRGRQLCAPPDQPWVERIIQRLQRTSAKMKRRSS
B2: peptide HD2 (from tick evasin EVA4) / CXCL13 (biotinylated, synthetic) (parent complex)
chain 1: EEDDYTAYAPLTCYFT
chain 2: VLEVYYTSLRCRCVQESSVFIPRRFIDRIQILPRGNGCPRKEIIVWKKNKSIVCVDPQAEWIQRMMEVLRKRSSSTLPVPVFKRKIP

Variants of: B1

Variant | enrichment
chain 1 F15M | -6.46 log2 (difference from the parental peptide)
chain 1 F15Y | -1.04 log2 (difference from the parental peptide)
chain 1 F15D | -7.57 log2 (difference from the parental peptide)
chain 1 F15S | -6.94 log2 (difference from the parental peptide)
chain 1 F15W | -0.785 log2 (difference from the parental peptide)
chain 1 F15L | -2.93 log2 (difference from the parental peptide)
chain 1 F15C | -6.81 log2 (difference from the parental peptide)
chain 1 F15A | -5.34 log2 (difference from the parental peptide)
chain 1 F15G | -8.74 log2 (difference from the parental peptide)
chain 1 A7R | -0.336 log2 (difference from the parental peptide)
chain 1 A7L | 1.76 log2 (difference from the parental peptide)
chain 1 A7F | 1.3 log2 (difference from the parental peptide)
chain 1 A7V | 0.465 log2 (difference from the parental peptide)
chain 1 A7T | -0.798 log2 (difference from the parental peptide)
chain 1 A7N | -1.33 log2 (difference from the parental peptide)
chain 1 A7Y | 4.06 log2 (difference from the parental peptide)
chain 1 A7I | 1.38 log2 (difference from the parental peptide)
chain 1 A7Q | 0.522 log2 (difference from the parental peptide)
chain 1 A7P | -4.29 log2 (difference from the parental peptide)
chain 1 T12E | -6.93 log2 (difference from the parental peptide)
chain 1 T12K | -6.56 log2 (difference from the parental peptide)
chain 1 T12P | -4.32 log2 (difference from the parental peptide)

Variant | enrichment
chain 1 T12Y | 3.73 log2 (difference from the parental peptide)
chain 1 T12F | 3.41 log2 (difference from the parental peptide)
chain 1 T12N | -6.73 log2 (difference from the parental peptide)
chain 1 T12S | -6.54 log2 (difference from the parental peptide)
chain 1 T12I | 5.78 log2 (difference from the parental peptide)
chain 1 T12A | -4.86 log2 (difference from the parental peptide)
chain 1 T12R | -3.3 log2 (difference from the parental peptide)
chain 1 D3V | -8.31 log2 (difference from the parental peptide)
chain 1 D3E | -0.508 log2 (difference from the parental peptide)
chain 1 D3P | -6.49 log2 (difference from the parental peptide)
chain 1 D3N | -6.84 log2 (difference from the parental peptide)
chain 1 D3S | -8.53 log2 (difference from the parental peptide)
chain 1 D4V | -4.18 log2 (difference from the parental peptide)
chain 1 D4Q | -5.46 log2 (difference from the parental peptide)
chain 1 D4F | -1.53 log2 (difference from the parental peptide)
chain 1 D4Y | 0.0224 log2 (difference from the parental peptide)
chain 1 T16I | 0.728 log2 (difference from the parental peptide)
chain 1 T16N | -5.68 log2 (difference from the parental peptide)
chain 1 T16V | 0.157 log2 (difference from the parental peptide)
chain 1 T16K | -6.25 log2 (difference from the parental peptide)
chain 1 T16W | 0.831 log2 (difference from the parental peptide)
chain 1 T16L | 0.688 log2 (difference from the parental peptide)

Variant | enrichment
chain 1 T16Y | -0.692 log2 (difference from the parental peptide)
chain 1 T16E | -1.61 log2 (difference from the parental peptide)
chain 1 T16H | -3.46 log2 (difference from the parental peptide)
chain 1 P10W | -2.06 log2 (difference from the parental peptide)
chain 1 P10Y | -6.54 log2 (difference from the parental peptide)
chain 1 P10F | -4.06 log2 (difference from the parental peptide)
chain 1 P10M | -7.47 log2 (difference from the parental peptide)
chain 1 Y14V | -7.09 log2 (difference from the parental peptide)
chain 1 Y14M | -7.94 log2 (difference from the parental peptide)
chain 1 Y14W | -2.78 log2 (difference from the parental peptide)
chain 1 Y14H | -4.96 log2 (difference from the parental peptide)
chain 1 Y14I | -6.25 log2 (difference from the parental peptide)
chain 1 Y14A | -9.01 log2 (difference from the parental peptide)
chain 1 C13P | -6.25 log2 (difference from the parental peptide)
chain 1 C13L | -7.7 log2 (difference from the parental peptide)
chain 1 C13S | -6.7 log2 (difference from the parental peptide)
chain 1 C13N | -2.93 log2 (difference from the parental peptide)
chain 1 C13D | -7.13 log2 (difference from the parental peptide)
chain 1 E1I | -1.84 log2 (difference from the parental peptide)
chain 1 E1T | -5.43 log2 (difference from the parental peptide)
chain 1 E1W | 3.38 log2 (difference from the parental peptide)
chain 1 E1V | -1.37 log2 (difference from the parental peptide)

Variant | enrichment
chain 1 E1H | -5.95 log2 (difference from the parental peptide)
chain 1 E1N | -2.91 log2 (difference from the parental peptide)
chain 1 Y5C | -4.33 log2 (difference from the parental peptide)
chain 1 Y5I | -6.6 log2 (difference from the parental peptide)
chain 1 Y5S | -6.07 log2 (difference from the parental peptide)
chain 1 Y5L | -3.97 log2 (difference from the parental peptide)
chain 1 Y5F | -2.5 log2 (difference from the parental peptide)
chain 1 Y5M | -5.03 log2 (difference from the parental peptide)
chain 1 Y5W | 3.19 log2 (difference from the parental peptide)
chain 1 Y5D | -5.02 log2 (difference from the parental peptide)
chain 1 Y5T | -5.05 log2 (difference from the parental peptide)
chain 1 Y5H | -6.3 log2 (difference from the parental peptide)
chain 1 E2C | -4.17 log2 (difference from the parental peptide)
chain 1 E2W | 3.67 log2 (difference from the parental peptide)
chain 1 E2A | -0.338 log2 (difference from the parental peptide)
chain 1 Y8L | -8.33 log2 (difference from the parental peptide)
chain 1 Y8S | -6.72 log2 (difference from the parental peptide)
chain 1 Y8M | -4.14 log2 (difference from the parental peptide)
chain 1 Y8H | -6.54 log2 (difference from the parental peptide)
chain 1 Y8V | -4.57 log2 (difference from the parental peptide)
chain 1 A9W | 2 log2 (difference from the parental peptide)
chain 1 A9P | -3.61 log2 (difference from the parental peptide)

Variant | enrichment
chain 1 A9E | -4.22 log2 (difference from the parental peptide)
chain 1 A9V | -6.04 log2 (difference from the parental peptide)
chain 1 T6I | -2.29 log2 (difference from the parental peptide)
chain 1 T6N | -0.836 log2 (difference from the parental peptide)
chain 1 T6D | 2.57 log2 (difference from the parental peptide)
chain 1 T6L | 1.3 log2 (difference from the parental peptide)
chain 1 T6K | -1.49 log2 (difference from the parental peptide)
chain 1 T6F | 2.62 log2 (difference from the parental peptide)
chain 1 T6H | -2.26 log2 (difference from the parental peptide)
chain 1 T6E | 1.9 log2 (difference from the parental peptide)
chain 1 T6Q | -0.425 log2 (difference from the parental peptide)
chain 1 T6A | -0.907 log2 (difference from the parental peptide)
chain 1 T6V | -2.16 log2 (difference from the parental peptide)
chain 1 T6P | -4.5 log2 (difference from the parental peptide)
chain 1 L11V | -0.0786 log2 (difference from the parental peptide)
chain 1 L11A | -6.47 log2 (difference from the parental peptide)
chain 1 L11H | -5.81 log2 (difference from the parental peptide)
chain 1 L11Q | -1.91 log2 (difference from the parental peptide)
chain 1 L11F | -0.375 log2 (difference from the parental peptide)
chain 1 L11S | -5.08 log2 (difference from the parental peptide)
chain 1 L11C | -4.39 log2 (difference from the parental peptide)

Variants of: B2

Variant | enrichment
chain 1 E1P | -3.73 log2 (difference from the parental peptide)
chain 1 E1A | -0.971 log2 (difference from the parental peptide)
chain 1 C13V | -5.3 log2 (difference from the parental peptide)
chain 1 C13I | -4.63 log2 (difference from the parental peptide)
chain 1 C13E | -6.71 log2 (difference from the parental peptide)
chain 1 F15Y | -0.776 log2 (difference from the parental peptide)
chain 1 F15Q | -6.18 log2 (difference from the parental peptide)
chain 1 D3V | -5.31 log2 (difference from the parental peptide)
chain 1 D3Q | -3.76 log2 (difference from the parental peptide)
chain 1 D3W | -0.789 log2 (difference from the parental peptide)
chain 1 D3T | -4.07 log2 (difference from the parental peptide)
chain 1 P10H | -5.73 log2 (difference from the parental peptide)
chain 1 P10V | -9.15 log2 (difference from the parental peptide)
chain 1 P10E | -2.35 log2 (difference from the parental peptide)
chain 1 P10W | -7.62 log2 (difference from the parental peptide)
chain 1 A7P | 1.36 log2 (difference from the parental peptide)
chain 1 A7G | 1.15 log2 (difference from the parental peptide)
chain 1 T16Y | -0.167 log2 (difference from the parental peptide)
chain 1 T16C | 0.44 log2 (difference from the parental peptide)
chain 1 T16A | 0.703 log2 (difference from the parental peptide)
chain 1 D4H | -5.54 log2 (difference from the parental peptide)

Variant | enrichment
chain 1 D4W | -0.19 log2 (difference from the parental peptide)
chain 1 E2L | -1.53 log2 (difference from the parental peptide)
chain 1 E2P | -4.82 log2 (difference from the parental peptide)
chain 1 A9V | -5.11 log2 (difference from the parental peptide)
chain 1 A9Q | -0.472 log2 (difference from the parental peptide)
chain 1 A9P | 2.11 log2 (difference from the parental peptide)
chain 1 Y5W | 5.05 log2 (difference from the parental peptide)
chain 1 Y5I | -1.67 log2 (difference from the parental peptide)
chain 1 Y14T | -6.13 log2 (difference from the parental peptide)
chain 1 Y14M | -7.75 log2 (difference from the parental peptide)
chain 1 Y14V | -9.22 log2 (difference from the parental peptide)
chain 1 Y14F | -0.356 log2 (difference from the parental peptide)
chain 1 T12W | -0.341 log2 (difference from the parental peptide)
chain 1 T12Y | -0.431 log2 (difference from the parental peptide)
chain 1 T12P | -5.86 log2 (difference from the parental peptide)
chain 1 T12R | -8.86 log2 (difference from the parental peptide)
chain 1 T6Y | 3.32 log2 (difference from the parental peptide)
chain 1 Y8E | -1.96 log2 (difference from the parental peptide)
chain 1 Y8H | -6.35 log2 (difference from the parental peptide)
chain 1 Y8S | -4.52 log2 (difference from the parental peptide)
